Data from the supplement of paper PMC12764529.
± gives the half width of the 95% confidence interval.

What was measured:
[1] = folding stability dG unfold from trypsin proteolysis; higher = more stable
Method in brief: (§1)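 Digests were run with trypsin and chymotrypsin at 11 concentrations in threefold dilutions, plus a no-protease condition, on designed mini-proteins in a PA-tagged cDNA display construct. The mini-proteins were under 80 residues, had no cysteine, and were kept only when AlphaFold2 dimer inter-PAE was above 15. After sequencing, Bayesian fitting of the counts gave K50, from which unfolding free energy was derived against a sequence-predicted unfolded-state K50 and a shared folded-state K50, per protease or combined.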

[2] = folding stability dG unfold from chymotrypsin proteolysis; higher = more stable
Method in brief: as §1

[3] = folding stability dG unfold (combined trypsin and chymotrypsin); higher = more stable
Method in brief: as §1

| Sequence | folding stability dG unfold [1] | folding stability dG unfold [2] | folding stability dG unfold [3] |
| --- | --- | --- | --- |
| SAGKMYLIVIKVDGKEYVIVIPEEEMSEEEIRKLISEELGISEEEVEIVEIVPVEPGESVEEALKKALESAG [r5_900_TrROS_Hall] | 2.77 ± 0.14 kcal/mol | 4.23 ± 0.074 kcal/mol | 3.94 ± 0.15 kcal/mol |
| SAGKNEVLKVDIEYDPETGIIRLKTTYPNGLKEEKLIFKIPGTGKWYTAWNSEYEEGKEYQDFGILPESAGG [r19_394_TrMRF] | 1.98 ± 0.15 kcal/mol | 2.35 ± 0.05 kcal/mol | 2.02 ± 0.12 kcal/mol |
| SAGKPIDLGEVEVEISPVSYDPETGKLTYQARLVTKDGKPIYTASVTYDPKTGKFSISVTPIGYDPSAFSAG [r5_200_TrMRF] | 2.26 ± 0.057 kcal/mol | 1.99 ± 0.12 kcal/mol | 2.2 ± 0.14 kcal/mol |
| SAGKPKIIEEKTITVPPGATLTIEFPPEVKRIEIINLDTGKTETIEIKPGEKLTFTFPPGSTVRVRVLSAGG [r19_118_TrROS_Hall] | 2.38 ± 0.029 kcal/mol | 4.06 ± 0.046 kcal/mol | 3.65 ± 0.09 kcal/mol |
| SAGKPKVIFIEGMTKEQLRAAIDEAKKKLKPGDIIVVRSKEAADALKELLPDLTVYLVDEETKEVKKLPSAG [r5_391_TrROS_Hall] | 1.91 ± 0.14 kcal/mol | 2.1 ± 0.067 kcal/mol | 2.08 ± 0.14 kcal/mol |
| SAGKPLTPDEAKELAEELVDAFAEEFARRHGMPPDDMKVIEVEETPDGYIQVTFRMPNMPMKFEIPVKDSAG [r5_565_TrROS] | 0.435 ± 0.057 kcal/mol | 0.277 ± 0.11 kcal/mol | 0.366 ± 0.1 kcal/mol |
| SAGKPPPVKIEVNYRRTPDNSYRAEVQIRLPDGKPLFEVTYPFDNPDDPEARERFVRKARNLAKELANSAGG [r19_13_TrROS] | 1.9 ± 0.14 kcal/mol | 1.8 ± 0.19 kcal/mol | 2.14 ± 0.5 kcal/mol |
| SAGKSIKIPYIIRFPSPNGEPHLMRIKEVTINPKPGMVKIKFQMPGKKQTHTVPPNNIEILPDPEEILKSAG [r5_15_TrROS] | 0.116 ± 0.22 kcal/mol | -0.0282 ± 0.33 kcal/mol | -0.0216 ± 0.29 kcal/mol |
| SAGKTATFTFTLPLPENDLILRVTVRVEEVEDIGEKKVYRVNVEIDLIDKDGVPHRFSFSFLVPAEELFSAG [r14_916_TrMRF] | 3.39 ± 0.15 kcal/mol | 5.14 ± 0.11 kcal/mol | 4.83 ± 0.16 kcal/mol |
| SAGKTIVIKAKTAEEAINALLKELKKKGEKVKITVTVYDKNGKEVYRVTIEIDPKEKGKIKIKVEKVPSAGG [r19_85_TrROS_Hall] | 2.19 ± 0.22 kcal/mol | 3.65 ± 0.2 kcal/mol | 3.33 ± 0.44 kcal/mol |
| SAGKVEIKEVSVDPNTDEVKVTFKNPNVPPGTKIVVYPKDGKPIEFETEPNKEVTLTLPKDVEKIEFEGSAG [r14_671_TrMRF] | -0.298 ± 0.13 kcal/mol | 0.381 ± 0.14 kcal/mol | 0.0919 ± 0.15 kcal/mol |
| SAGKVKATYDPKTGTLTITFNVKKNEKINVKANIKIPEYNATVEKVETNGAKKDNEPVTVKIKLKNLKKSAG [r5_737_TrMRF] | 1.06 ± 0.076 kcal/mol | 2.75 ± 0.12 kcal/mol | 1.94 ± 0.54 kcal/mol |
| SAGKVKIEVEEVPPNVKKVKVESLEELLEAAKKLPPGAVVEVELEDGSKVTVVLNKDGKVVEVKKEPVPSAG [r5_506_TrROS_Hall] | 2.61 ± 0.35 kcal/mol | 0.9 ± 0.16 kcal/mol | 1.58 ± 0.27 kcal/mol |
| SAGKVKIVKIDKGKNKITIEFYDDGKKIATIPFPPNFPNTKVIAEVNEDGSIKVTFISGDKPIEITIDASAG [r5_533_TrMRF] | 2.57 ± 0.16 kcal/mol | 2.64 ± 0.1 kcal/mol | 2.59 ± 0.12 kcal/mol |
| SAGKVKVEKLEDGTVIVEAEIKDPETDEYIKIFDLVTFNPETGYALVPRLVIKGDKPFTFPVLVKLPKSAGG [r19_289_TrMRF] | 0.0636 ± 0.067 kcal/mol | 0.931 ± 0.11 kcal/mol | 0.671 ± 0.12 kcal/mol |
| SAGKVTVERDPSTNVVNVTVEVERERDVPPGAPVTETIIIPARVKFDEDGKLVEPISLDDILAAIRAAGSAG [r5_239_TrMRF] | 0.221 ± 0.12 kcal/mol | 0.684 ± 0.095 kcal/mol | 0.629 ± 0.21 kcal/mol |
| SAGKYIMHPIKAGAEIKITIPPEGYRIKIGMYYPNGGKMEEHEVPIKPGKTLEFKIPDPNFFVMIEPEPSAG [r5_797_TrROS] | 0.984 ± 0.1 kcal/mol | 1.57 ± 0.25 kcal/mol | 1.3 ± 0.26 kcal/mol |
| SAGLAAAIAAAGAIAEALGVTVRVEVFRDGELVGTFEIPAPVGDGEPVSLEVRLPDPEVTVRFELRIPGSAG [r14_728_TrMRF] | 2.26 ± 0.14 kcal/mol | 2.51 ± 0.037 kcal/mol | 2.5 ± 0.11 kcal/mol |
| SAGLDEEAYRNGLTVYLTSRLPGPDVLRPQWFDVTPEGDGFTYNVALPDGVPVNLEVLSRKVLSPEELLSAG [r14_427_JUSTAS] | -0.489 ± 0.51 kcal/mol | 0.149 ± 0.32 kcal/mol | 0.0205 ± 0.19 kcal/mol |
| SAGLEVVKKLAEELGFPVEILRVEYDPETGELTFEAVARPKDGKTRRVRIRIRVPKESDEVEIELEYFDSAG [r5_929_TrMRF] | 4.67 ± 0.11 kcal/mol | 3.95 ± 0.082 kcal/mol | 4.51 ± 0.1 kcal/mol |
| SAGLGLEKAKKLAEKIAETLKKELEKELGIPADQIKVEAKVEKLPDGSYKITVKINLKDIPIEKVFYVDSAG [r14_226_TrMRF] | 3.5 ± 0.52 kcal/mol | 2.9 ± 0.069 kcal/mol | 2.87 ± 0.31 kcal/mol |

| Sequence | folding stability dG unfold [1] | folding stability dG unfold [2] | folding stability dG unfold [3] |
| --- | --- | --- | --- |
| SAGLKVEIFPMDGTEQTIPIPAEDADPLVDEFQDNGFKVDNVEVDPDGEVWIPIKFPNGRPWMIEIDWESAG [r5_645_TrROS] | -0.0958 ± 0.093 kcal/mol | -0.0946 ± 0.31 kcal/mol | 0.0616 ± 0.29 kcal/mol |
| SAGLRVVAVARTPDGSLVVVYELPDRLVVLRYTPTAITSVAVFPVPPVPPPPAVPRYYDPVTGRWVDGSAGG [r19_254_TrMRF] | 1.71 ± 0.029 kcal/mol | 3.641 ± 0.026 kcal/mol | 3.02 ± 0.061 kcal/mol |
| SAGMAVVKITLEYEDGRKEEFILFVESENPEEVLEEAEEALAELIEELDVPLKSATIEIYDIPPDEELSAGG [r19_335_TrMRF] | 2.12 ± 0.11 kcal/mol | 3.39 ± 0.09 kcal/mol | 3 ± 0.1 kcal/mol |
| SAGMEEEEVVLKIRVKDPETGEEKTFEVKLKDIEKVEVDEDGNIRIYLKEDGKEITIPADKITEVELLSAGG [r19_416_TrROS_Hall] | 3.15 ± 0.11 kcal/mol | 3.86 ± 0.059 kcal/mol | 3.71 ± 0.089 kcal/mol |
| SAGMEELAEELAKELEGEGLKVEVEVDPETGVVTVTAYSPESVTVVTITQDPNNDAFTVNTTTYPPLLSAGG [r19_2_JUSTAS] | 3.07 ± 0.083 kcal/mol | 2.95 ± 0.061 kcal/mol | 3.02 ± 0.059 kcal/mol |
| SAGMEIKYTITVSLSSGQTLGTKTITDPGKSIEEIVKEFAKIPGLTLITVTVTNPDGTPTTVTIPVNPSAGG [r19_269_JUSTAS] | 2.24 ± 0.059 kcal/mol | 3.072 ± 0.022 kcal/mol | 2.79 ± 0.051 kcal/mol |
| SAGMEITTVTLPDGTKLITITLPVPGGPSITADVPYDPATGKVTLLKITGEDPALEALAKEAVEKLKKESAG [r5_266_JUSTAS] | 0.68 ± 0.032 kcal/mol | 1.17 ± 0.053 kcal/mol | 1.09 ± 0.11 kcal/mol |
| SAGMEITVPGPFLSQEVFDLPDRPYLVLPTPEGIAVIDLVTGEAVFYPFGTTEPIVVPVPPGEELDLLSAGG [r19_138_TrMRF] | 1.73 ± 0.091 kcal/mol | 1.97 ± 0.042 kcal/mol | 1.83 ± 0.088 kcal/mol |
| SAGMEKVKLTFKTEDGSEVEIEIVKNEDGSYFVKVKVDKENQEIYVFNADGELIEKIKVKSLEDALKALSAG [r5_757_TrROS_Hall] | 1.69 ± 0.063 kcal/mol | 3.19 ± 0.052 kcal/mol | 2.73 ± 0.12 kcal/mol |
| SAGMEPTTITVDVTIPPEVFARLSEEELKEKVLAELGIPESLPVEVEISRKEVKLDGKTVYVVPMTIVGSAG [r14_334_JUSTAS] | 0.117 ± 0.085 kcal/mol | 0.652 ± 0.11 kcal/mol | 0.407 ± 0.089 kcal/mol |
| SAGMEPVSIKITKIEKTPENKDYVIVTVTPPDGVPTEIKVPIEFYKSGKLKNATAEELVKLFPEYKLESAGG [r19_74_JUSTAS] | 1.13 ± 0.065 kcal/mol | 2.68 ± 0.045 kcal/mol | 2.28 ± 0.12 kcal/mol |
| SAGMETVKIKVRVKVTVRERLPDGTVKTREFELTLEIEVEVEPGQTAEELAKKLAEEFNIEEVEIEKVPSAG [r5_994_TrROS_Hall] | 2.57 ± 0.19 kcal/mol | 3.83 ± 0.58 kcal/mol | 3.29 ± 0.38 kcal/mol |
| SAGMEVEWEIGDADEDGYVRLTVKAVLLIPETGKPVVVEAEIKMPIEELENEEVLKELARKVVEEAEAESAG [r5_964_TrMRF] | 1.4 ± 0.037 kcal/mol | 2.1 ± 0.032 kcal/mol | 1.85 ± 0.086 kcal/mol |
| SAGMEVKVETVTIEIEVDGKKIEIKVVRVEVRNEDGSIYEFTFIEITVPEDVSEEELRKLLEELGLEPESAG [r5_486_TrROS_Hall] | 2.64 ± 0.12 kcal/mol | 4.1 ± 0.31 kcal/mol | 3.77 ± 0.29 kcal/mol |
| SAGMFVKIKFKTADKTVEELVKKIKEETGIPENAKITVIAEKSEDEGFVVIIEFDEEEVRDKIKEIVGSAGG [r19_215_TrMRF] | 1.52 ± 0.026 kcal/mol | 1.35 ± 0.062 kcal/mol | 1.45 ± 0.087 kcal/mol |
| SAGMGATLVSESEEEIDSSGVRKLTYRSPGSLLVETLYPDGTVPVYVIDPSTGKVVEERVFHVPPDVPLSAG [r14_676_JUSTAS] | 0.179 ± 0.13 kcal/mol | 0.166 ± 0.17 kcal/mol | 0.204 ± 0.13 kcal/mol |
| SAGMIEILELPPNKAIVKIYDPKTGKFEIIEIDFGGKDGKPLSLEELIEKIKKLAKELYPDLEINVTPLSAG [r5_293_TrMRF] | 3.28 ± 0.26 kcal/mol | 1.98 ± 0.063 kcal/mol | 2.61 ± 0.17 kcal/mol |
| SAGMIEISEEGDTLTVTVPPGVSLEEVREYVEKKYPGMDLQEITETALPDGTTTVTFNVKKNPPSPKLLSAG [r5_110_JUSTAS] | -0.658 ± 0.37 kcal/mol | 0.699 ± 0.23 kcal/mol | 0.316 ± 0.16 kcal/mol |
| SAGMIEITLYPPKAVVDVTVTIGGESESRTIPVDGKSKEEVIEEAREEVKAEYPDKAITTKVTEVPGDGSAG [r5_180_JUSTAS] | -0.437 ± 0.18 kcal/mol | 1.03 ± 0.098 kcal/mol | 0.641 ± 0.071 kcal/mol |
| SAGMIKPEEIVEKVKAIFEEEGLENVTVKVYYDEETDEIFVEVEVELEPEEEEKAQAILDKIKKELGLESAG [r5_9_TrMRF] | 3.02 ± 0.29 kcal/mol | 2.38 ± 0.23 kcal/mol | 2.85 ± 0.21 kcal/mol |
| SAGMIKVEVVVPPEDPSKPPSEEELRALAEEVVRELGLDPAKHPIEIKREVVDPEKGVLRYTITVKLPSAGG [r19_244_JUSTAS] | 3.09 ± 0.092 kcal/mol | 2.87 ± 0.069 kcal/mol | 2.96 ± 0.11 kcal/mol |
